# Literature values as cited in patent US20100216667A1, “METHOD FOR DETERMINING COMPATIBILITY OF AN ACTIVE PHARMACEUTICAL INGREDIENT WITH MATERIALS” (priority 2008, published 2010).
# Details: pre-filled syringes with uncoated stoppers and Polysorbate-80
substance,measurement,value
EPREX: marketed product whose active ingredient is erythropoietin,Pure red cell aplasia (PRCA) in treated patients,increase in pure red cell aplasia (PRCA)
